Measurements from paper PMC3871807, “Analysis of rice ER-resident J-proteins reveals diversity and functional differentiation of the ER-resident Hsp70 system in plants” (Journal of Experimental Botany, 2013).
Each block holds one binder with its values, some of them ahead of it.

Columns and labels:
Assay in all cases: co-IP; J-protein-3xFLAG and OsBiP-2HA-6His co-transfected into rice Oc cell protoplasts, overnight at 28 °C; extract in 50 mM TRIS-HCl pH 7.5, 150 mM NaCl, 0.5% Triton X-100; anti-FLAG M2 magnetic beads 2 h at 4 °C; washed with NET buffer (0.1% NP-40); blots with anti-FLAG-HRP and anti-HA-HRP; recovery of BiP-HA over input, relative to BiP1-HA
Details in all cases: partners not purified
[1] = target: T1, OsERdj3A-FLAG (rice (Oryza sativa), UniProt Q10MW6 26-582)
T1 construct: OsERdj3A, rice ER-resident J-protein (N-terminal J-domain followed by a thioredoxin-like region), encoded by Os03g0293000; also called Os03g0293000; source: protoplasts from rice Oc cells, transfected by electroporation, in extract; not shown: 3x FLAG, C-terminal, kept

[2] = target: T2, OsP58A-FLAG (rice (Oryza sativa), UniProt A0A0P0VG31 29-476)
T2 construct: OsP58A, rice ER-resident J-protein (P58IPK type: two TPR-like regions followed by a J-domain), encoded by Os02g0195300; full-length coding region; also called Os02g0195300; source: protoplasts from rice Oc cells, transfected by electroporation, in extract; not shown: 3x FLAG, C-terminal, kept
T2 sequence (looked up): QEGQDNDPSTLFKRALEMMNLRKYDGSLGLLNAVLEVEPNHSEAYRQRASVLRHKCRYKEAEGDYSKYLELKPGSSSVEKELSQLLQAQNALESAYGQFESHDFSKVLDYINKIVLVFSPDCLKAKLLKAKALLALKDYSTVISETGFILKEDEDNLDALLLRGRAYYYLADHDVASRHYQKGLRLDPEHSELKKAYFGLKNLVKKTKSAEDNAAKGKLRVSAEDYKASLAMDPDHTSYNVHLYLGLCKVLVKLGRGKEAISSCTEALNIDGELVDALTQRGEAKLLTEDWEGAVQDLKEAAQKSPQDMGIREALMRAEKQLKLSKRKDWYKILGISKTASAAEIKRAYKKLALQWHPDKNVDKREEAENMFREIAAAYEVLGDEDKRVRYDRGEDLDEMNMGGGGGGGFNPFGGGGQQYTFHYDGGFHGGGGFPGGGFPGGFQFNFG

[3] = target: T3, OsERdj3B-FLAG (rice (Oryza sativa), UniProt B9FHF3 24-347)
T3 construct: OsERdj3B, rice ER-resident J-protein of 347 amino acid residues (N-terminal J-domain, zinc finger motif, DnaJ C-terminal domain), encoded by Os05g0156500; full-length coding region; also called Os05g0156500; source: protoplasts from rice Oc cells, transfected by electroporation, in extract; not shown: 3x FLAG, C-terminal, kept
T3 sequence (looked up): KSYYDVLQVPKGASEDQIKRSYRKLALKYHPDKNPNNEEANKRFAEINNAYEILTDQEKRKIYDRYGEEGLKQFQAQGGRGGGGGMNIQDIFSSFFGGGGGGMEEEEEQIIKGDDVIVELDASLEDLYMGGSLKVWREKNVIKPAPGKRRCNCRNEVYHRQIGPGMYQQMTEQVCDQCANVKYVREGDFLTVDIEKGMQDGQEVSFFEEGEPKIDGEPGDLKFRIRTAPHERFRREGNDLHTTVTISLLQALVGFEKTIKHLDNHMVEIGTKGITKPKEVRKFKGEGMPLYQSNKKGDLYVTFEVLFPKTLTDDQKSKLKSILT

T1 sequence (Q10MW6 26-582): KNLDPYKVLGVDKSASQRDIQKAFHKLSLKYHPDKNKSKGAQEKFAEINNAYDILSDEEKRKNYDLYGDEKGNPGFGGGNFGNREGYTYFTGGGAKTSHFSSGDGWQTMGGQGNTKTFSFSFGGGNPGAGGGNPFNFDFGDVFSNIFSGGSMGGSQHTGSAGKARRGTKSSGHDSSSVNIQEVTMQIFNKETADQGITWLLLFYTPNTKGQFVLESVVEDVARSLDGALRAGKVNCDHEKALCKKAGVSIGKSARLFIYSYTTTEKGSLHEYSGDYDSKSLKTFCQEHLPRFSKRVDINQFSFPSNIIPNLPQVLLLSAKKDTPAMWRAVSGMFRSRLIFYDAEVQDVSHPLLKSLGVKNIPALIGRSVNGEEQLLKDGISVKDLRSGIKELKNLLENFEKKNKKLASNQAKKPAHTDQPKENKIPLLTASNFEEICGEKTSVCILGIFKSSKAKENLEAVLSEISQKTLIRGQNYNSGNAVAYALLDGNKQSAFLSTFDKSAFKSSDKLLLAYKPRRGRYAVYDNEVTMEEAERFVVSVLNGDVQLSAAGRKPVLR

fold higher level than OsBiP1-HA (recovery in co-IP) [1]: 4 fold
B1: OsBiP5-HA (natural protein)
chain: not shown
notes: full-length cDNA; The coding region was inserted into the Pro35S-ShΔ:2HA-6His vector; source: protoplasts from rice Oc cells, transfected by electroporation, in extract; not shown: 2x HA, C-terminal, kept; His6, C-terminal, kept

fold higher affinity than OsBiP3-HA (recovery in co-IP) [2]: 4 fold
fold higher affinity than OsBiP3-HA (recovery in co-IP) [3]: ~2 fold
fold higher affinity than OsBiP5-HA (recovery in co-IP) [3]: ~3 fold
B2: OsBiP1-HA (natural protein)
chain: not shown
notes: as for B1
